Source: article PMC11315836

Molecular target: Recombinant hG-CSFR (granulocyte colony stimulating factor receptor) (human) (UniProt Q99062)
Assay: SPR

Chain of UniProt Q99062 (Q99062 25-836): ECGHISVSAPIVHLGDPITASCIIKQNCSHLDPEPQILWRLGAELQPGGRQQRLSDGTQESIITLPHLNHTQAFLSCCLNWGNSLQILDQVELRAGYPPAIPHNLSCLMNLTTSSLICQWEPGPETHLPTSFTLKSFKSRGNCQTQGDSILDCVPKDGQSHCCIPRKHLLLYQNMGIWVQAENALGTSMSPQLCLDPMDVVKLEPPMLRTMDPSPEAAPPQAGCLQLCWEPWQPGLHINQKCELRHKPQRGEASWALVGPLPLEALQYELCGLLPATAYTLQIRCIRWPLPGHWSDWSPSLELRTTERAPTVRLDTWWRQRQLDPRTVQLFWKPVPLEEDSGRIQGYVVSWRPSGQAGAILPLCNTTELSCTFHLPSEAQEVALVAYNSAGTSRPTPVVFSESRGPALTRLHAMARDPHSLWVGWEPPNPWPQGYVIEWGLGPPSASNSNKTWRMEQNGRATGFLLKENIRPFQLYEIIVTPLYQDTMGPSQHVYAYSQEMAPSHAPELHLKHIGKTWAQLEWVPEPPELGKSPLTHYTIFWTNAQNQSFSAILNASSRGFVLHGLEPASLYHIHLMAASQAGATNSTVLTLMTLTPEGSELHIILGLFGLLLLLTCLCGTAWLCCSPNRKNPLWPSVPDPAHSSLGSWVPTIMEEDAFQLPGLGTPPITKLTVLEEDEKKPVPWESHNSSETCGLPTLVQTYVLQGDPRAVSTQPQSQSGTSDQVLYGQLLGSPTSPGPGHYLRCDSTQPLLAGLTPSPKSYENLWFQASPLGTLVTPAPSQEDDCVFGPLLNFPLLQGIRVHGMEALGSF

With “pegfilgrastim (Neulasta), reference product (from UniProt P09919-2 31-204) (ligand)” the Kd was 0.097 nM.
